Laboratory results as given in patent US20260083845A1 (CELLICURE, published 2026).

T1: NKG2D (natural receptor on NK cells) (human, UniProt P26718 1-216)
T1 construct: whole, on cells; also called NKG2D receptors; natural NKG2D
T1 sequence (looked up): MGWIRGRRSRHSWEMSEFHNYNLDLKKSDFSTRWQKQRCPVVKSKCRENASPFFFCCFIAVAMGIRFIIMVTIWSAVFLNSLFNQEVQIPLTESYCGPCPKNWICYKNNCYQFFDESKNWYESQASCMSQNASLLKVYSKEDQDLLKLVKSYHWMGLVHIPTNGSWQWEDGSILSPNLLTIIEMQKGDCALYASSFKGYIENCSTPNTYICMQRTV

T2: NKG2D-GFP (human, UniProt P26718 1-216)
T2 construct: whole, on cells; NKG2D-GFP expressed in NK cells for the PLA between GFP and DAP10; also called natural NKG2D; not shown: GFP
T2 sequence (looked up): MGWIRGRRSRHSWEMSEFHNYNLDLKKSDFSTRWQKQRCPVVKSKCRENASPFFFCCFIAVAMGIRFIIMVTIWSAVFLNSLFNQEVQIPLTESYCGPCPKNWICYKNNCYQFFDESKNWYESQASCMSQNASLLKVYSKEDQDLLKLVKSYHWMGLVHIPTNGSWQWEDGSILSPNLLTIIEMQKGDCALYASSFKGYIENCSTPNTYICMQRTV

B1: DNAX-Activation Protein 10 (DAP10) (other, human, UniProt Q9UBK5 19-93, looked up)
chain: QTTPGERSSLPAFYPGTSGSCSGCGSLSLPLLAGLVAADAVASLLIVGAVFLCARPRRSPAQEDGKVYINMPGRG
notes: whole, on cells; Endogenous DAP10 of the NK cells, detected with anti-DAP10 (mouse IgG) in the PLA

Key:
[1] = biological target: T1, NKG2D (natural receptor on NK cells); assay: Duolink proximity ligation assay NKG2D+DAP10, counted PLA signals, CAR-NK cells stimulated by 293T-MICA
NKG2D-GFP = biological target: T2, NKG2D-GFP; assay: Duolink proximity ligation assay (anti-GFP + anti-DAP10) in NKG2D-GFP expressing NK cells with CAR0 or CAR2, stimulated by 293T-CD19-MICA, confocal microscopy
Description: (§1) PLA assays were performed using the in situ Duolink PLA red kit (Sigma-Aldrich) according to the manufacturer's instructions. The CAR0, an empty vector with GFP expression, or CAR2-GFP fusion expressing NK cells were attached to the poly-l-lysine glass, target cells were then added and incubated at 37° C. for 30 minutes. Unattached cells were removed by washing with PBS. slides were fixed and stained with anti-GFP (Rabbit IgG) and anti-DAP10 (Mouse IgG), washed, and stained with anti-rabbit and anti-mouse PLA probes, followed by probe DNA ligation, amplification, Fluorescent staining were then performed and observed using confocal microscopy,
(§2) NKG2D receptor has no intracellular signaling domain, it recruits adaptor DNAX-Activation Protein 10 (DAP10) to transfer signals via YxxM motif (Eagle et al. (2009) Beyond Stressed Self: Evidence for NKG2D Ligand Expression on Healthy Cells. Curr Immunol Rev. 5(1):22-34). […] DAP10 was recruited to the CAR2 effectively stimulating by CD19.

[2] = biological target: B1; assay: Duolink proximity ligation assay (anti-GFP + anti-DAP10) in NK cells stimulated by 293T-CD19-MICA, confocal microscopy
Description: as §1, §2

binding result [1] | binding result (NKG2D-GFP) | binding result [2] | Binder
binds | binds |  | B1
 |  | binds | CAR2-GFP fusion (NKG2D CAR: anti-CD19 ScFv-CD8 hinge-NKG2D TM-2B4 ICD-CD3zeta, fused to GFP) (receptor, Expressed in NK cells for the Duolink PLA; not shown: GFP) EVKLQQSGAELVRPGSSVKISCKASGYAFSSYWMNWVKQRPGQGLEWIGQIYPGDGDTNYNGKFKGQATLTADKSSSTAYMQLSGLTSEDSAVYFCARKTISSVVDFYFDYWGQGTTVTVSSGGGGSGGGGSGGGGSDIELTQSPKFMSTSVGDRVSVTCKASQNVGTNVAWYQQKPGQSPKPLIYSATYRNSGVPDRFTGSGSGTDFTLTITNVQSKDLADYFCQQYNRYPYTSGGGTKLEIKPAKPTTTPAPRPPTPAPTIASQPLSLRPEACRPAAGGAVHTRGLDFACDPFFFCCFIAVAMGIRFIIMVTWRRKRKEKQSETSPKEFLTIYEDVKDLKTRRNHEQEQTFPGGGSTIYSMIQSQSSAPTSQEPAYTLYSLIQPSRKSGSRKRNHSPSFNSTIYEVIGKSQPKAQNPARLSRKELENFDVYSSFGLLDPKLCYLLDGILFIYGVILTALFLRVKFSRSADAPAYQQGQNQLYNELNLGRREEYDVLDKRRGRDPEMGGKPRRKNPQEGLYNELQKDKMAEAYSEIGMKGERRRGKGHDGLYQGLSTATKDTYDALHMQALPPR
